Measurements reported in patent US20250042994A1 (HAINAN SIMCERE ZAIMING PHARMACEUTICAL, published 2025).

T1: Human CD19-his protein (human, UniProt P15391 20-291)
T1 construct: bought protein; also called human CD19 protein; recombinant human CD19-His; not shown: His tag
T1 sequence (looked up): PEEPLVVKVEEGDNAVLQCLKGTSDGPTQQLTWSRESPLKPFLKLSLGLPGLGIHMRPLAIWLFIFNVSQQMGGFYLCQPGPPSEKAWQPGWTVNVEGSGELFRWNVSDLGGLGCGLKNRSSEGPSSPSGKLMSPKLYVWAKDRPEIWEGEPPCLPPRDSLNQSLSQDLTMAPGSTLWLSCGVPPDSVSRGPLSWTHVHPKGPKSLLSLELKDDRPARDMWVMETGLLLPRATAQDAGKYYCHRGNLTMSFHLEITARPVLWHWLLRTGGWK

T2: human CD19 exon1-3-his protein (human, UniProt P15391 20-186, limits assumed)
T2 construct: made in HEK293E cells; also called membrane-distal end; not shown: His tag
T2 sequence (looked up): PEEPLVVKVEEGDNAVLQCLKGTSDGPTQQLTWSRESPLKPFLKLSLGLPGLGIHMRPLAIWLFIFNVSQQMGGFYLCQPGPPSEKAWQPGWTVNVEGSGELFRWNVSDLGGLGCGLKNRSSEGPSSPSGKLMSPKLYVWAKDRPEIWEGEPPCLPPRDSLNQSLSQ

T3: murine CD19 protein (murine, UniProt P25918 17-287, limits assumed)
T3 construct: bought protein; also called commercial murine CD19
T3 sequence (looked up): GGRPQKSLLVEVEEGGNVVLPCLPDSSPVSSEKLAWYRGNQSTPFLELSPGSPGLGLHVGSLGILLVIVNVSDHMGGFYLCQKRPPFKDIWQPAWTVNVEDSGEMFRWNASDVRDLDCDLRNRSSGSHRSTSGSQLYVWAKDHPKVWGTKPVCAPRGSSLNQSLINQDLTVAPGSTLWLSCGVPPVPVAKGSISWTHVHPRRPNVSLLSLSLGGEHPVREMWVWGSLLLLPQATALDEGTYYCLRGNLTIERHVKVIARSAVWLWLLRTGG


Assays:
Human CD19-his protein [1] = molecular target: T1, Human CD19-his protein; experiment: ELISA, antibody at 10 nM
Human CD19-his protein [2] = molecular target: T1, Human CD19-his protein; experiment: ELISA, antibody at 100 nM
Human CD19-his protein [3] = molecular target: T1, Human CD19-his protein; experiment: ELISA on coated human CD19-His
Human CD19-his protein [4] = molecular target: T1, Human CD19-his protein; experiment: ELISA, antibody at 0.01 nM
Human CD19-his protein [5] = molecular target: T1, Human CD19-his protein; experiment: ELISA, antibody at 0.10 nM
Human CD19-his protein [6] = molecular target: T1, Human CD19-his protein; experiment: ELISA, antibody at 1.00 nM
[7] = molecular target: T2, human CD19 exon1-3-his protein; experiment: ELISA, coated at 2 ug/mL
murine CD19 protein = molecular target: T3, murine CD19 protein; experiment: ELISA, coated murine CD19
Procedure, shortened: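 Plates coated overnight at 4° C with recombinant murine or monkey CD19 and blocked with 2% BSA. Chimeric antibodies, serially diluted from 100 nM, bound for 2 h at 37° C. TMB development for 10 min with OD450 read-out.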

Human CD19-his protein [8] = molecular target: T1, Human CD19-his protein; experiment: ELISA, antibody at 0.0001 nM
Human CD19-his protein [9] = molecular target: T1, Human CD19-his protein; experiment: ELISA, antibody at 0.001 nM

| Binder | OD450 (Human CD19-his protein [1]) | OD450 (Human CD19-his protein [2]) | EC50 (read off the curve) (Human CD19-his protein [3]) [nM] | OD450 (Human CD19-his protein [4]) | OD450 (Human CD19-his protein [5]) | OD450 (Human CD19-his protein [6]) | binding result [7] | binding result (murine CD19 protein) | OD450 (Human CD19-his protein [8]) | OD450 (Human CD19-his protein [9]) |
| --- | --- | --- | --- | --- | --- | --- | --- | --- | --- | --- |
| F3.113.16 (antibody, human IgG1, V domains shown, human-murine chimeric antibody, human IgG1) VH: QVQLQQPGAELVKPGASVKLSCKASGYTFTNYWMQWVKQRPGQGLEWIGEIDPSDSYINYNQKFKGKATLTADTSSSTAYMQLSSLTYEDSAVYYCARPVTVPWYFDVWGTGTTVTVSS VL: EIVLTQSPTTMAASPGEKITITCSATSSISSNYLHWYQQKPGFSPKLLIYRTSNLASGVPARFSGSGSGTSYSLTIGTMEAEDVATYYCQQGSAIPRIFTFGSGTKLEIK | 0.34 | 0.38 | ~0.5 | 0.06 | 0.11 | 0.26 | no binding | no binding | 0.05 | 0.05 |
| F3.133.14 (antibody, human IgG1, V domains shown, human-murine chimeric antibody, human IgG1) VH: QVQLQQPGAELVMPGASVKLSCKASGYTFTNYWMHWVKQRPGQGLEWIGEIDPSDYYANYNQKFKGKATLTVDKSSSTAYMQLSSLTSEDSAVYYCARSHYYANSYNYWGQGTTLTVSS VL: EIELTQSPTTMAASPGEKITITCSASSSISSDYLHWYQQKPGFSPKLLIYRTSNLASGLPARFSGSGSGTSYSLTIGTMEAEDVATYYCQQGSSVPRMLTFGAGTKLELK | 1.87 | 1.62 | ~0.2 | 0.12 | 0.58 | 1.59 | no binding | no binding | 0.05 | 0.07 |
| F3.121.4 (antibody, human IgG1, V domains shown, human-murine chimeric antibody, human IgG1; also called chimeric antibody F3.121.4) VH: QVQLQQPGAELVVPGTSVKLSCKASGYTFTNYWMHWVKQRPGQGLEWIGEIDPSDNYANYNQEFQGKATLTVDKSSSTAYMQLSSLTSDDSAVYYCARHDGYFGALDYWGQGTSVTVSS VL: EIVLTQSPTTMAASPGEKITITCSASSSISSNYLHWYQQKPGFSPKFLIYRTSNLASGVPARFSGSGSGTSYSLTIGTMEAEDVATYYCQQASSIPRMFTFGSGTKLEIK | 1.04 | 0.82 | ~0.1 | 0.11 | 0.5 | 0.88 | no binding | no binding | 0.05 | 0.06 |
| F3.64.4 (antibody, human IgG1, V domains shown, human-murine chimeric antibody, human IgG1) VH: EVQLQQSGPELVKPGASVKISCKASGYTFTDYHINWVKQSHGKSPEWIGDINPNNGGTTYNQKFKDKATLTVDKSSSTAFMELRSLTSEDSAVYYCARFITTVVAWYFDVWGTGTTVTVSS VL: DIQMTQSPASLSVSVGETVTITCRASENIYSNLAWYQQKQGKSPQLLVYAATNLADGVPSRFSGSGSGTQYSLKINSLQSEDFGNYYCQRFWDTPRTFGGGTKLEIK | 1 | 0.83 | ~0.1 | 0.13 | 0.55 | 1.06 | no binding | no binding | 0.05 | 0.06 |
| F2.15.26 (antibody, human IgG1, V domains shown, human-murine chimeric antibody, human IgG1) VH: QVQLKESGPGLVAPSQSLSITCTVSGFSLTDYGVSWIRQSPGKGLEWLGVIWGSGDTYYNSVLESRLSINKDNSKNQVFLKMNSLQTDDAAMYFCAKHSYYGGSFAMDYWGQGTSVTVSS VL: DIQMTQTTSSLSASLGDRVTISCRASQDISNYLNWYQQKPDGTVKLLIYYTSRLHSGVPSRFSGSGSGTDYSLTISNLEQEDIATYFCQQGKTLPWTFGGGTKLEIK | 1.4 | 1.54 | ~0.09 | 0.18 | 0.8 | 1.3 | no binding | no binding | 0.05 | 0.07 |
| F4.18.13 (antibody, human IgG1, V domains shown, human-murine chimeric antibody, human IgG1) VH: QVQLQQSGPELVKPGASVKISCKASGYAFSSFWMNWVKQRPGEGLEWIGRIYPGDGDTNYNGKFKGKATLTADDSSSTAYMQLSSLTSVDSAVYFCAREVIAAVVTTDFDYWGQGTTLTVSS VL: DIQMTQTTSSLSASLGDRVTISCRTSQDISNYLNWYLQKPDGTVKLLIYYTSGLHSGVPSRFSGSGSGTDYSLTISNLEPEDIATYFCQQGKTLPYTFGGGTKLEIK | 1.96 | 1.69 | ~0.05 | 0.25 | 1.32 | 2.01 | no binding | no binding | 0.05 | 0.08 |
| F4.21.2 (antibody, human IgG1, V domains shown, human-murine chimeric antibody, human IgG1) VH: QVQLKQSGPGLVQPSQSLSITCTVSGFSLSTYGVHWVRQSPGRGLEWLGVIWIGGTTDYNAAFISRLTISKDNSRGQVFFKMDSLQANDTAIYYCARKGYYKYDGGYYYAMDYWGQGTSVTVSS VL: DIQMTQSSSYLSVSLGGRVTITCKASDHINNWLAWYQQKPGNAPWLLISGATSLETGVPSRFSGSGSGKDYTLSISSLQTEDVATYYCQQYWSTPLTFGAGTKLELK | 1.94 | 1.9 | ~0.07 | 0.29 | 1.1 | 1.98 | no binding | no binding | 0.07 | 0.1 |

More lines, now with the values ahead:

| OD450 (Human CD19-his protein [1]) | OD450 (Human CD19-his protein [2]) | EC50 (read off the curve) (Human CD19-his protein [3]) [nM] | OD450 (Human CD19-his protein [4]) | OD450 (Human CD19-his protein [5]) | OD450 (Human CD19-his protein [6]) | binding result [7] | binding result (murine CD19 protein) | OD450 (Human CD19-his protein [8]) | OD450 (Human CD19-his protein [9]) | Binder |
| --- | --- | --- | --- | --- | --- | --- | --- | --- | --- | --- |
| 1.76 | 1.93 | ~0.03 | 0.38 | 1.56 | 1.89 | no binding | no binding | 0.06 | 0.09 | F4.48.12 (antibody, human IgG1, V domains shown, human-murine chimeric antibody, human IgG1) VH: QMQLKESGPGLVAPSQSLSITCTVSGFSLTDYGVSWIRQPPGKGLEWLGVIWGSGSTFYNSALTSRLSISKDNSKSQVFLKMNSLQTADTAMYFCAKHHYYGGSFAMDYWGQGTSVTVSS VL: DIQMTQASSSLSASLGDRVTISCKTSQDISNYLNWYQQKPDGTFKLLIHYTSRLHSGVPSRFSGSGSGSDYSLTISNLEREDIATYFCQQGNSLPYTFGGGTKLEMK |
| 0.61 | 0.68 | ~0.5 | 0.07 | 0.16 | 0.43 | no binding | no binding | 0.05 | 0.05 | F4.41.1 (antibody, human IgG1, V domains shown, human-murine chimeric antibody, human IgG1) VH: QVQLQQSGAELVRPGTSVKVSCKASGYAFTNYLIEWVKQRPGQGLEWIGVINPGSGDTLYNEKFKGKATLTADKSSTTAYMQLSGLTSDVSAIYFCARSPPITTIVADYFDYWGQGTTLTVSS VL: DIQMTQTTSSLSASLGDRVTISCRASQDISNYLNWYQQKPDGTVKLLIYYTSRLHSGVPSRFSGSGSGADYSLTISNLEQEDIATYFCQQGKTLPYTFGGGTKLEIK |
| 0.96 | 0.88 | ~0.05 | 0.17 | 0.62 | 0.83 | no binding | no binding | 0.06 | 0.08 | F4.22.6 (antibody, human IgG1, V domains shown, human-murine chimeric antibody, human IgG1) VH: QVQLQQSGPELVKPGASVKISCKASGYAFSSFWMNWVKQRPGQGLEWIGRIYPGDGDTNYNGKFKGKATLTADKSSTTAYMHLSSLTSVDSAVYFCTRSVITAVVDWYFDVWGAGTTVTVSS VL: QIVLSQSPAILSASPGEKVTLTCRASSSVNFMHWYQQKPGSSPKPWIYATSNLASGAPARFSGSGSGTSYSLTISRVEAEDAAAYYCQQWSSYPIFTFGSGTKLEIK |
| 1.72 | 1.64 | ~0.3 | 0.11 | 0.51 | 1.37 | no binding | no binding | 0.05 | 0.06 | F4.33.12 (antibody, human IgG1, V domains shown, human-murine chimeric antibody, human IgG1) VH: QVQLQQSGAELVRPGSSVKISCKGSGYAFSSYWMNWVKQRPGQGLEWIGQIYPGDGDTNYNGKFKGKATLTADKSSSTAYMQLSSLTSEDSAVYFCARAGFYYGSDSSMDYWGQGTSVTVSS VL: not shown |
